Assay results taken from paper PMC2138355.

Target: fourth component of human complement (C'4) (human)
Assay: sucrose density gradient ultracentrifugation

C'2 oxidized by treatment with a critical concentration of iodine (oxyC'2) (natural protein)
s rate of C'2 in mixtures with C'4 (pH 5): 7.7 S | s rate of C'2 in mixtures with C'4 (pH 8): 13.5 S
